Laboratory results reported in US20210292730.

Biological target: T1, Recombinant murine APRIL (Sigma SRP3189-20UG), Q9D777
T1 chain: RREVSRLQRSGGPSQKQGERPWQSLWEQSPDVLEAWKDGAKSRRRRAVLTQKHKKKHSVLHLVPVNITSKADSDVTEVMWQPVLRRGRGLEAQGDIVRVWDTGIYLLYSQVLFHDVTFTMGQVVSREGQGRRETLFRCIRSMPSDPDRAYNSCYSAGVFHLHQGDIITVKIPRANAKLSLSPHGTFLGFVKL

B1: plant produced recombinant human Furin (truncated form, pEAQ-Furin (truncated)-His6-KDEL, produced in N. benthamiana) (protein)
chain: QGQKVFTNTWAVRIPGGPAVANSVARKHGFLNLGQIFGDYYHFWHRGVTKRSLSPHRPRHSRLQREPQVQWLEQQVAKRRTKRDVYQEPTDPKFPQQWYLSGVTQRDLNVKAAWAQGYTGHGIVVSILDDGIEKNHPDLAGNYDPGASFDVNDQDPDPQPRYTQMNDNRHGTRCAGEVAAVANNGVCGVGVAYNARIGGVRMLDGEVTDAVEARSLGLNPNHIHIYSASWGPEDDGKTVDGPARLAEEAFFRGVSQGRGGLGSIFVWASGNGGREHDSCNCDGYTNSIYTLSISSATQFGNVPWYSEACSSTLATTYSSGNQNEKQIVTTDLRQKCTESHTGTSASAPLAAGIIALTLEANKNLTWRDMQHLVVQTSKPAHLNANDWATNGVGRKVSHSYGYGLLDAGAMVALAQNWTTVAPQRKCIIDILTEPKDIGKRLEVRKTVTACLGEPNHITRLEHAQARLTLSYNRRGDLAIHLVSPMGTRSTLLAARPHDYSADGFNDWAFMTTHSWDEDPSGEWVLEIENTSEANNYGTLTKFTLVLYGTAPEGLPVPPESSGCKTLTSSQAHHHHHHKDEL
in vitro cleavage of 5 µg APRIL by 25 ng Furin, 25° C., 1 h, SDS-PAGE: recombinant APRIL protein is cleaved by both plant produced human Furin (25ng) or commercial Furin (25 ng) and 16.8 kDa fragment was generated
